{"source": "patent US20220041692A1", "molecular_target": "polyclonal mouse anti-TSHR antibodies contained in sera from Ad-TSHR-immunized mice", "assay": "competition ELISA: sera pre-incubated with peptide 19, binding of polyclonal anti-TSHR antibodies to coated TSHR-Fc", "note": "Bridge positions count the residues as written; N and C are the ends. Ends that are not written are not given here.", "data": [{"binder": "CHQEEDFRVTC (disulfide 1-11)", "note": "[cyclic peptide 19]", "values": [{"measurement": "IC50", "result": 20, "unit": "nM"}]}]}
